In the DeepSol protein solubility set:

Test: soluble on expression in E. coli; label from the status in PepcDB or PDB records

Soluble on expression in E. coli, not soluble:
MGSDKIHHHHHHMTAVKHAFTELPTIDIRDLAGDDLARRQAVADAIGRAAREVGFFYITGHGIDPALIAGVREAAKQIFALPMEEKMNYYIGHSKSHKGYVPEGEEIYGSGKPDHKEAFDIGFQAADDHPLVLAGTPLIGANEWPDLPDFRARVLAYYDAVFALGHRLFDAFALALGLPEGYFKPMVTCPPAKLRLIHYPFDASVEDVPGIGAHTDYECFTLLLADQPGLEVLNEESVWIDAPPVKNAAGEEAFVINIGDMLEVLSAGTFVATAHRVRKVPQERYSFPLFFACDYHTLIRPLPTFLAAGEAGEYQELSIGEHMWSQALQTYRYLREKVNRGELQLPERARGTNTFGHLKKQAQQKNP
MGSDKIHHHHHHMKITIYSKDLYTYGAMLVGGILKETHKHNIKLIKDIKNKKLFLKSDIVILSLYSTLNIIDPVIKDTVDYLKSKNIKIYVAGPVSAYPEIILNELNVDGVILGEGELTTPEIINGSKDGLAYFENGEMIVNKPKSKPDLDFSKIYVPKDIAAQNVRGANVYIETHRGCLGHCTFCQVPEFFGRDIRSKPIELIIEEVNELKKNGVNRIAISGGTGSLYNFKNTVNKNKFIEMIESVSNIIGRQNLSVPDMRVDYVDEEVLNAIKNYSIGWVFYGIESGSDKLLNSMKKGTNSKKNLKAIELAKDCGVKVAGSFIVGHPKEKEVDFLMTKDFIVDAELDDVFVSAAEPIPKTELCTEVLNTKMDENPTFISHNGPYRRYGLKENEARAYDLMLHSEMWKSTPRVITTNLSKVYLDEAKMQGSDIRKATELIFKYRDFLI
MGSDKIHHHHHHMGNPRAFLTIHRQEAGYRPVHERIDDFSEVEQTLNSGDRRTQASRCMDCGVPFCHWACPLGNKQPEWQDLLYKGRYKEAYHVLEQTDDFPEFTGRVCPALCEKSCVLKLSCDEPVTIRENEAAIVEAAFREGYVQPIQPVRNGKKVAVIGSGPAGLTVANQLNRKGYEVTVFEKDELPGGLLRFGIPNFKLGKHIIDRRIRIMEQEGILFRVNTMVGKEILAKDVVKDFDAVCVAIGAEVPRDLSIEGRHLRGVHFALELLSQQNRILEGIPIPPKSQINCKGKKVLVIGGGDTGSDCVGTANRHGAACVTQIEIMPQPPVGQNPATPWPMYPQVLKTSSSHEEGCIRRWNLASNRFIGEKNNLIGVEVEEVEWVPSPDGGRPQMRQTGKKEIIEADLVFLAMGFLHPVQEGLIKELRLATDNRNNIAVDNAGYTANSNLFACGDAVSGASLVVKAMASGRNVARSIDRFLQTN
MMRSLLSHPQPSHAIRSPAAACALALFLSGCQSLGTDGLTASNAPAEISGPAASAIAGDMVGRLAEQIGPGTATVSLKQDNSPFGQALEAALKGWGYAVVTDQKTDGVSRIVPLAYVVIPFEGQVLTRLSTNSIELGRAYIVTTSGAQPASALAVMKRGLEHHHHHH
MSFSKLLDLLTGREAQRTAIDWDAKYGTDTRSTVELHGLTISHDSRRFGERYQASDPSALSDALAFVGLDPRSYRFVDLGCGKGRMLIVAAELGFKSCIGVEFADELAQTAKANAAAAGFDTISVVHGDAGAYAFQDEPFVLYLFNPFSHQIMQRVRDNLLKLRRAEYYVIYKNPRERRIFDEMQTLRYLGTPPAHKGVWGVHVWGPRGELEHHHHHH
MVLGLASFPESLSSQSETATQPRRPSVKWDLGSDYRKGTEETTASGSNFRRERLDSQPDLGLHVQPQIYFLRPRSPLPKLLFSLMNTNDANVKKLLPKSHLSRVIIRDNLNAQRICEMEMKASDKTKRKMSYLYDHLKKKFMMDQLRKMIRWRRDSQSTQDYLDKERV
PRRTDADGEKMLAYLNTLYADKQAFELRADSLRKEVRQRLGIDTLLAQCVNSTPILSKIRKFDGYTVQNFALETLPGLYVCGSVYTPQSKGKHALIICPNGHFGGGRYREDQQQRMGTLARMGAVCVDYDLFGWGESILQVGSTAHRSSAAHTIQAMNGLLILDYMLASRKDIDTKRIGANGGSGGGTHTVLLTTLDDRFTASAPVVSLASHFDGGCPCESGMPIQLSAGGTCNAELAATFAPRPQLVVSDGGDWTASVPALEFPYLQRIYGFYDAKDNVTNVHLPKEKHDFGPNKRNAVYDFFAEVFD
MKLITAIVQDKDASSVANALVEHNIRATRLASAGGFLRSGNSTFLIAVKDDEVNTTIGVIKEHSKTRKQFVTPPVGLDMSIDTIGQPIEVEIGGATIIVQAIEDFQHF
MNHLKEVYIDIRDEIFDALDAASLVDVEPLELESQLKDSVNILIEKKQLQISSLKRLDLVKALLDELKGLGPLQALVDNDDISDIMINGPSDIFIEINGKVEKSPIQFVNEKQLNTIAKRIASNVGRRIDESKPLCDARLEDGSR
GPVDPVKTFSEVLAAVEDRTISKELLDEKCRKILAFKYALIICKGISKELPAEEVVRQVNSREAERMSEDLWQASITILKNKKHFLPLSEGNRIACVNLDGAASNTFTQELGLTSKDCYSYAKGSNSTRTQELLSKLKGYDAVIVTVRHTQPDWAGTFLHRLTEQNHTAIVFFTSPYVADRIPAAMDKARAIVVAYENVKEAARMAAYKIRDRVVVSSGGGIPVVQEEEDTDPTANMMPPTELSSGLIPMPA
MGSDKIHHHHHHMNQQTAAAQSTGVQAGTESSLLDEIVEKSKVAKSESEHARAKDLIGELVSQVLDGTVVVSDNLSATIDARVAELDRLISSQLSAVMHAAEFQRLESTWRGLDYLVKESNTGSTIKIKALHAPKRDLVRDFKNATEFDQSALFKKVYEEEFGTFGGSPFGVLVGDYEISRQPEDQYFIEQMSHVAAAAHAPFIASAAPELLGLESFADLGKPRDLGKVFDTVEYAKWKSFRDSEDSRYVGLTLPRFLGRLPFNPKDGAIAESFNFVEDVDGTDHDKYLWCNASWAFAARLTAAFDDFGWCAAIRGVEGGGLVEDLPTHTFKTDDGEIALKCPTEIAITDRREKELSDLGFIPLVHCKNSDYAAFFAAQSVQKPKKYSTDSANANAVLSAQLQYIFSVSRIAHYLKAMMRDKIGSFASAQNVETFLNRWISQYVLLDDDATQEQKAQFPLREASVQVSEIPGKPGAYRSVAFLRPHFQLDELSISLRLVADLPKPANS

Soluble on expression in E. coli, soluble:
MSLHLNVAQQLYNAEITAGSLLLKESRAIAQLLLQSADETAWRQAIAIDNILQKTSPASAKRMSSLIRKRLELMPRELWSMIADGTTEVAIQSLMAAAIKHSRLLGDFMLKVLQRHYREFNPKILSREWDSFLAECAHIDPAVASWSQSTRKKVGQVAYRILSEAGYLDNTRSLKLQPVLIAPEVSKFLNSHDEKYILKCMEIAHEEGHHHHHH
MMGRGKLILIEGLDRTGKTTQCNILYKKLQPNCKLLKFPERSTRIGGLINEYLTDDSFQLSDQAIHLLFSANRWEIVDKIKKDLLEGKNIVMDRYVYSGVAYSAAKGTNGMDLDWCLQPDVGLLKPDLTLFLSTQDVDNNAEKSGFGDERYETVKFQEKVKQTFMKLLDKEIRKGDESITIVDVTNKGIQEVEALIWQIVEPVLSTHIDHDKFSFF
MKWDEIGKNIAKEIEKEILPYFGRKDKSYVVGTSPSGDETEIFDKISEDIALKYLKSLNVNIVSEELGVIDNSSEWTVVIDPIDGSFNFINGIPFFAFCFGVFKNNEPYYGLTYEFLTKSFYEAYKGKGAYLNGRKIKVKDFNPNNIVISYYPSKKIDLEKLRNKVKRVRIFGAFGLEMCYVAKGTLDAVFDVRPKVRAVDIASSYIICKEAGALITDENGDELKFDLNATDRLNIIVANSKEMLDIILDLL
MEIDWLNAIPDSEDSEEDEEERQERARLLKEKEEEREACKKRYLERIEREEAQRFGKQFKIDPLTFAERLERKLIPAEKKQRYREFIPCVVDHFGGTDVHFVKAMESIKTENQLLDFLTAAHKPLIEQTEDSVLHDWLAEFYKETVTSLLEMTSITDHDLKCFKVGNVFDEVRTNAIQKKVQKMEMENFAERVREAKIKEAEERKATAEATRDVLESLEGMTLSHVKHDELEDELNTIALEELHSTTRDTSPPRTRLSTRAQSQLNAMVKHLFVPAAPTTSTEVPMEMDKDDDEMDAYDDSDLKILFSSTTKESLKMEMGEENDECNFEPSQVSKYPSFQASSQFDETRRYDYDEEGDNKELARLRRPTWRKILNYEKRIGTNFHRFTNAENANLWRRNLYEDKRKKTSKVQFVDYDSPLNKMRLFVRPNEQFFNADDGPMTDRIDFSLSDGFNVLATRKIMSPLVCGSNYDCEFMARTREGPQYLVRKTQSWMHSYCGNILGRFWYLRDRHADKYPGVKDSNYDQKRRQNFGLLRYYTLEELIEVFGLLLPDVQIAMRRGVRRENMPVSTVVKLKEKDREAVESPVQGVLLLTDWRLVHLFDNTAIVNAIIHYFPTNLGGVFFEAMTEYLTELLLDNTIEFHTIIFAFGGTPTFKKQDFLAFWKKLIVRTTQSIDVFWMAQDWCDGLNSTQEEIDQLNEFNHYVEQMFTMMRKNGNINYNYCDIRKQYNIPSLDPSFNRPNDFLLLEPIYRAYINHFVDECNCYLKGPFVKCQPRVHNGYAQRNGTKLEFSK
MQNNDFRTGSGSLKGSSTGVLKQFLFENVFICRIGVIKSFDFETQKGVVTIKEYEGLEISTCSISNFNFDLTAEDEVILLQSNFNIFQESDNNHFDKNYFYILSVLNPKKIGIRLDQFELSVQELGAQSENIKFKAKKLIIDVDNIEIKGNLKINGTKFENHMHSSGTLTYVNSSGVPTTTTGKTGPIA
MSLIVDREELEYDGSQLRRAFAHERYGIKGRAVVVFRGPMDVRTEYTADAEDVGSPIRGNDVLHLLVDDPTRADPLVAGLLQRLLVVVTKEVIEKELSTDLDRDGDDLLHDGRKLTVSVFKPAGPGSLAHLGINVTTEGVPVPASSLRDLGYRGDPLDLGRRVAVEFVREITDVELDLTKIRWEGHHHHHH
MSAVTYTFLGPQGTFTEAALMQVPGAADATRIPCTNVNTALERVRAGEADAAMVPIENSVEGGVTATLDAIATGQELRIIREALVPITFVLVARPGVELSDIKRISTHGHAWAQCRLWVDEHLPNADYVPGSSTAASAMGLLEDDAPYEAAICAPLIAAEQPGLNVLAEDIGDNPDAVTRFILVSRPGALPERTGADKTTVVVPLPEDHPGALMEILDQFASRGVNLSRIESRPTGQYLGHYFFSIDADGHATDSRVADALAGLHRISPATRFLGSYARADKQPAVVAPHTSDAAFASAHAWVDSILKGS
MSLIIDVLQHVPHEGPGLIANWARENQHQLKIHTLFEENEHVPKDSDFLIVLGGPMGINDTAEFPWLKDERKLIKRLSEQHKPVFGVCLGAQQIAATFGSEITVNKVKEVGWFPVKRTSDKLSFFPESLNVFHWHQDTFALPAGATRLFASEGCLNQAFLYGENIIGLQFHFEMEKAGIETILQIDEAFITPGKYVQSVEVMREKDVPEDNKQMLEAILDYLINPKTIEGHHHHHH
MDPIKQEISEYFKDWMELYKKNAIDEMTYKGYEQTLKYLKTYMPNVLISEITASSYQRALNKFAETHAKASTKGFHTRVRASIQPLIEEGRLQKDFTTRAVVKGLEHHHHHH
ALTSNASGTFDGYYYELWKDTGNTTMTVYTQGRFSCQWSNINNALFRTGKKYNQNWQSLGTIRITYSATYNPNGNSYLCIYGWSTNPLVEFYIVESWGNWRPPGATSLGQVTIDGGTYDIYRTTRVNQPSIVGTATFDQYWSVRTSKRTSGTVTVTDHFRAWANRGLNLGTIDQITLCVEGYQSSGSANITQNTFSQSS
MIDERDKIILEILEKDARTPFTEIAKKLGISETAVRKRVKALEEKGIIEGYTIKINPKKLGYSLVTITGVDTKPEKLFEVAEKLKEYDFVKELYLSSGDHMIMAVIWAKDGEDLAEIISNKIGKIEGVTKVCPAIILEKLK
